Source: US20140349310A1

Target: human c-Met on the surface of human tumor cells (human) (UniProt P08581)
Test: FACS on tumor cells (cell line not named on the sheet), PE-labelled isotype control, FL2 Log; unstained cells 3.48

Chain of human c-Met on the surface of human tumor cells (human) (P08581 25-1390): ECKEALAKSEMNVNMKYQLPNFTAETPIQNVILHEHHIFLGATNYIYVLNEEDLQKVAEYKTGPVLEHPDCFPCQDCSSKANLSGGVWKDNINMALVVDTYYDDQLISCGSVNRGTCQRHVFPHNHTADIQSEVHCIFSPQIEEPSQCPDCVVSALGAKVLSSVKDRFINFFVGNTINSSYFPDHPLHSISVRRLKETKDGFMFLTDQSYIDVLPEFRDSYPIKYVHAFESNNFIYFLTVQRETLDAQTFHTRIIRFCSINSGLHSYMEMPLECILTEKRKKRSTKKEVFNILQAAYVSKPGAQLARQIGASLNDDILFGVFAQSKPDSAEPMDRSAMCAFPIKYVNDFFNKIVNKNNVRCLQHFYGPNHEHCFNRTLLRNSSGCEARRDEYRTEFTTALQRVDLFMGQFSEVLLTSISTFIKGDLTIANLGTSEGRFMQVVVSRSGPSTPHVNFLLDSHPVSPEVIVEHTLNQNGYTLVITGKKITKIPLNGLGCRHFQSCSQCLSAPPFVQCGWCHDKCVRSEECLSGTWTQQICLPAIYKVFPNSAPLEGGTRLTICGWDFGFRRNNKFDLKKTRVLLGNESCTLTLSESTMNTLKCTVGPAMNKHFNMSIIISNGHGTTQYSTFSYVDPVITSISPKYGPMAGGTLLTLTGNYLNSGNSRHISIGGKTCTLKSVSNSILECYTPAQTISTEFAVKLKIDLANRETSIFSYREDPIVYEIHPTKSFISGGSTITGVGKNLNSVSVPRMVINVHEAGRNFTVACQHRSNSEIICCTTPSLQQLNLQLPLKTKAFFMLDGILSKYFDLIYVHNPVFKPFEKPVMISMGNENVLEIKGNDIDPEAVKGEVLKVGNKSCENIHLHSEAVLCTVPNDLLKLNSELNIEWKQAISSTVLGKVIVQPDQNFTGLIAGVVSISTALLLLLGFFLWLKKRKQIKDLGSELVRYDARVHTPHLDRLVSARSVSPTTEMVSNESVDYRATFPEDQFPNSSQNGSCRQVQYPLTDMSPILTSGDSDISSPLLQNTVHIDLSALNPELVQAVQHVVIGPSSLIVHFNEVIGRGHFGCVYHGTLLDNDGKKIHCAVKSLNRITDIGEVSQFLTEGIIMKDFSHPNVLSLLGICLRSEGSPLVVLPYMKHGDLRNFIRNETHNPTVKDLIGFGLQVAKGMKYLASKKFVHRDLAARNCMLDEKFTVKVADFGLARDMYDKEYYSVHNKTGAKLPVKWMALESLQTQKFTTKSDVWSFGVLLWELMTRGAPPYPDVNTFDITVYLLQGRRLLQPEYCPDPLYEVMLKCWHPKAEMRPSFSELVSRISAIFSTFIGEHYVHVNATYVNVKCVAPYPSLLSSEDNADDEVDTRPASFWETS

Mean fluorescence: 6.47
Substance: mIgG1-PE (antibody)
